Laboratory results as given in paper PMC3212559, “Large-Scale Protein-Protein Interaction Analysis in Arabidopsis Mesophyll Protoplasts by Split Firefly Luciferase Complementation” (PLoS ONE, 2011).

Assays:
Assay in all cases: split reporter (BiFC, NanoBiT); SFLC in living Arabidopsis mesophyll protoplasts: Aux/IAA-FLucN or MYB30-FLucN co-expressed with ARFCTD-FLucC or Aux/IAA-FLucC for 6 hr; 10 µg of each construct, 2×10^4 cells, 96-well plate, D-luciferin; relative activity standardised against ARF5CTD-FLucC + IAA28-FLucN
Conditions in all cases: partners not purified
[1] = biological target: T1, IAA18-FLucC (Arabidopsis, UniProt O24408 1-267)
T1 construct: Arabidopsis Aux/IAA protein IAA18; also called Aux/IAA-FLucC; source: Arabidopsis mesophyll protoplasts, transfected, in living cells; not shown: FLucC (firefly luciferase aa 394-550)
T1 sequence (looked up): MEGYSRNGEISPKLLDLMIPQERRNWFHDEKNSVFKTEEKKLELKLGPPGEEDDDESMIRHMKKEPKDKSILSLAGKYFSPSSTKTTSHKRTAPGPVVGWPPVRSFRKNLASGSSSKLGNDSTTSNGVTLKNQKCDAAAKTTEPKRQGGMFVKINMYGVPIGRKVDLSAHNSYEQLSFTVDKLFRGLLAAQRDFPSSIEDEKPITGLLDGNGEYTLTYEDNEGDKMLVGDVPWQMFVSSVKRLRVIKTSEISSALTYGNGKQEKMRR

[2] = biological target: T2, IAA19-FLucC (Arabidopsis, UniProt O24409 1-197)
T2 construct: Arabidopsis Aux/IAA protein IAA19; also called Aux/IAA-FLucC; source: Arabidopsis mesophyll protoplasts, transfected, in living cells; not shown: FLucC (firefly luciferase aa 394-550)
T2 sequence (looked up): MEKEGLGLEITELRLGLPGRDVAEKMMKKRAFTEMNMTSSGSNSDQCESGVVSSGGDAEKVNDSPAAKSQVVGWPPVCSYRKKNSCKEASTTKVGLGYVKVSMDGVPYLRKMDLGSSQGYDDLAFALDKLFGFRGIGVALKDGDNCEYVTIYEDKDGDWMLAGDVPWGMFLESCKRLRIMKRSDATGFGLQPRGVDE

[3] = biological target: T3, ARF10 C-terminal domain (CTD)-FLucC (Arabidopsis, UniProt Q9SKN5 580-693)
T3 construct: Arabidopsis auxin response factor 10, C-terminal dimerization domain (CTD); In the ARF-ARF tests the same CTD stood both as ARFCTD-FLucC and as ARFCTD-FLucN; one molecule for both; also called ARF10CTD-FLucC; ARFCTD-FLucC; source: Arabidopsis mesophyll protoplasts, transfected, in living cells (SFLC) and in lysate (co-IP); not shown: FLucC (firefly luciferase aa 394-550)
T3 sequence (looked up): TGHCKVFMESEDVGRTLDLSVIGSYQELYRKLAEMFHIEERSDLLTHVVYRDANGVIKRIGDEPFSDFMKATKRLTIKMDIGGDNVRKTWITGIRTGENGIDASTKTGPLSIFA

[4] = biological target: T4, IAA13-FLucC (Arabidopsis, UniProt Q38831 1-247)
T4 construct: Arabidopsis Aux/IAA protein IAA13; also called Aux/IAA-FLucC; source: Arabidopsis mesophyll protoplasts, transfected, in living cells; not shown: FLucC (firefly luciferase aa 394-550)
T4 sequence (looked up): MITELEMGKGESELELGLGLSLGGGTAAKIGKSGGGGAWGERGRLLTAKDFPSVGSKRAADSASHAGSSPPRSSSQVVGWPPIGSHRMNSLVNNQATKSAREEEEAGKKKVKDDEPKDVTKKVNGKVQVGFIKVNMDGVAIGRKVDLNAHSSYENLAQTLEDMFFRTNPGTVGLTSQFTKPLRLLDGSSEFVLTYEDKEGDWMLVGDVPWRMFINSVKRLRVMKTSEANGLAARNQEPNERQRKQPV

[5] = biological target: T5, ARF1 C-terminal domain (CTD)-FLucC (Arabidopsis, UniProt Q8L7G0 542-665)
T5 construct: Arabidopsis auxin response factor 1, C-terminal dimerization domain (CTD); In the ARF-ARF tests the same CTD stood both as ARFCTD-FLucC and as ARFCTD-FLucN (FLucN, firefly luciferase aa 1-398, in place of FLucC); one molecule for both; also called ARF1CTD-FLucC; ARFCTD-FLucC; source: Arabidopsis mesophyll protoplasts, transfected, in living cells (SFLC) and in lysate (co-IP); not shown: FLucC …
T5 sequence (looked up): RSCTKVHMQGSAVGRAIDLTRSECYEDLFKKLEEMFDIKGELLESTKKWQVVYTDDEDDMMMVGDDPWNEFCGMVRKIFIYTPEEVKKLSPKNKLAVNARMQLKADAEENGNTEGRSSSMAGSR

Measured: relative luciferase activity (standardised against ARF5CTD-FLucC + IAA28-FLucN)

B1: MYB30-FLucN (natural protein, UniProt Q9SCU7 1-323, looked up)
chain: MVRPPCCDKGGVKKGPWTPEEDIILVTYIQEHGPGNWRAVPTNTGLLRCSKSCRLRWTNYLRPGIKRGNFTEHEEKMIVHLQALLGNRWAAIASYLPQRTDNDIKNYWNTHLKKKLNKVNQDSHQELDRSSLSSSPSSSSANSNSNISRGQWERRLQTDIHLAKKALSEALSPAVAPIITSTVTTTSSSAESRRSTSSASGFLRTQETSTTYASSTENIAKLLKGWVKNSPKTQNSADQIASTEVKEVIKSDDGKECAGAFQSFSEFDHSYQQAGVSPDHETKPDITGCCSNQSQWSLFEKWLFEDSGGQIGDILLDENTNFF
notes: transcription factor MYB30, the unrelated protein used as negative control; source: Arabidopsis mesophyll protoplasts, transfected, in living cells; not shown: FLucN (firefly luciferase aa 1-398)
< 0.1: all assays above
